These results are taken from article PMC3570549, “HAMP Domain Conformers That Propagate Opposite Signals in Bacterial Chemoreceptors” (PLoS Biology, 2013).

Data set [1] deals with the molecule itself. Put plainly: crystal structure; Aer2 1–172 mutant proteins; L44H by vapor diffusion, 1.5–1.7 M MgSO4, 0.1 M Tris pH 8.5, room temperature, space group P3(2)12; V33G in conditions and space group of the WT; molecular replacement.
Data set [2] deals with the molecule itself. Kind of data set: pulsed dipolar ESR spectroscopy (PDS, double electron electron resonance); inter-subunit distances between MTSSL spin labels on one engineered Cys per subunit; 17.35 GHz; protein 25–50 µM.

Substitutions are numbered along the chain they refer to. Names may count otherwise.

B1: Aer2 1–172 L44H (domain or fragment)
chain: MGLFNAHAVAQQRADRIATLLQSFADGQLDTAVGEAPAPGYERHYDSLRALQRQLREQRAELQQVESLEAGLAEMSRQHEAGWIDQTIPAERLEGRAARIAKGVNELVAAHIAVKMKVVSVVTAYGQGNFEPLMDRLPGKKAQITEAIDGVRERLRGAAEATSAQLATAAYN
notes: Aer2, soluble receptor of Pseudomonas aeruginosa, residues 1-172 (HAMP1, HAMP2, HAMP3); also called L44H HAMP1 mutant; source: purified as previously described for the WT protein [7], induction temperature reduced to 18°C
As for B1, in data set [1], the binding result is “binds”.

B2: H2C AS1 (Aer2 1–172 A81C, MTSSL spin-labeled) (domain or fragment)
chain: B1 chain with H44L, A81C
modifications: MTSSL spin label on the engineered Cys at 81
notes: Aer2, soluble receptor of Pseudomonas aeruginosa, residues 1-172; source: Aer2 1–172 mutant proteins purified as previously described for the WT protein [7]; spin-labeled with MTSSL
In the case of B2, the binding result in data set [2] is “binds”.

B3: Aer2 1–172 V33G (domain or fragment)
chain: B1 chain with V33G, H44L
notes: Aer2, soluble receptor of Pseudomonas aeruginosa, residues 1-172 (HAMP1, HAMP2, HAMP3); also called HR2 mutant of HAMP1; source: purified as previously described for the WT protein [7], induction temperature reduced to 18°C
Regarding B3, the binding result in data set [1] was “binds”.

B4: H1C AS1 (Aer2 1–172 D26C, MTSSL spin-labeled) (domain or fragment)
chain: B1 chain with D26C, H44L
modifications: MTSSL spin label on the engineered Cys at 26
notes: as for B2
In the case of B4, in data set [2], the binding result is listed as “binds”.
